Source: patent US5739002A, “Method for reproducing in vitro the Proteolytic activity of the NS3 protease of hepatitis C virus (HCV)” (Istituto di Richerche di Biologia Molecolare P. Angeletti …, priority 1994, dated 1998)

Tests used:
HCV NS3 serine protease [1] = target: T1, HCV NS3 serine protease (Hepatitis C virus (isolate BK), UniProt P26663); experiment: Activation of HCV NS3 serine protease in cultivated HeLa cells (vTF7-3 infection, plasmid cotransfection, immunoprecipitation); type: cell-based; details: NS4A expressed transiently in HeLa cells together with the NS3 serine protease domain; no cleavage without NS4A
T1 construct: substrate NS5AB precursor
T1 sequence (P26663 1007-1615): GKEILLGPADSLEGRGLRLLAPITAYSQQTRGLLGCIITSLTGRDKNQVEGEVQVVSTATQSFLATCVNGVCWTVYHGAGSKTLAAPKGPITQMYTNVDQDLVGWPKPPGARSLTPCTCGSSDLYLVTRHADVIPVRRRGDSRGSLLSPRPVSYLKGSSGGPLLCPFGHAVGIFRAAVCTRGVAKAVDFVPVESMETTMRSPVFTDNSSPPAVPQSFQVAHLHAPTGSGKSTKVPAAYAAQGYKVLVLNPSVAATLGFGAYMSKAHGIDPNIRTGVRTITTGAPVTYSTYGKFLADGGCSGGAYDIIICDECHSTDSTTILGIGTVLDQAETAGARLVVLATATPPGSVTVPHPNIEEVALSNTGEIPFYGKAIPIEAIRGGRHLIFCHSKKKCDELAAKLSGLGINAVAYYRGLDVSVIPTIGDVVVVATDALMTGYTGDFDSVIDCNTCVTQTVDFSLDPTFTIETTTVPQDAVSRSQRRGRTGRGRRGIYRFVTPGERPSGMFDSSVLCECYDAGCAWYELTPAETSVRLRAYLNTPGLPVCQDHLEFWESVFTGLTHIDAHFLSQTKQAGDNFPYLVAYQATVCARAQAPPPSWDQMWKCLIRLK

HCV NS3 serine protease [2] = target: T1, HCV NS3 serine protease; experiment: Activation of HCV NS3 serine protease in an in vitro translation assay (rabbit reticulocyte extracts, NS5AB precursor substrate); type: biochemical
Text: The plasmids described in FIG. 1 can also be used for in vitro synthesis of mRNA coding for the respective HCV proteins using the purified RNA polymerase enzyme of the phage T7 (Promega).
Generally the plasmids derived from pCite-1^R were linearized using suitable restriction enzymes and transcribed using the protocols supplied by the manufacturer (Promega). These synthetic mRNA, could later be used to synthesize the corresponding proteins in extracts of rabbit reticulocytes in the presence of canine pancreas microsomal membranes. The reticulocyte extracts, the canine pancreas microsomal membranes, like all the other material required, were purchased from Promega, which also supplied the instructions for the in vitro protein syntheses process described above.
Programming the in vitro translation mixture with mRNA transcribed from pCite(NS3) it is possible to observe synthesis of a protein with the expected molecular weight (68 kDa) containing the entire NS3 serine protease domain. The mRNA transcribed from pCite(NS5AB) guides the synthesis of a precursor of 115 kDa which contains NS5A and NS5B and is thus a substrate for the proteolytic activity associated with NS3.
This peptide was added to an in vitro translation mixture simultaneously programmed with the mRNAs transcribed from the plasmids pCite(NS3) and pCite(NS5AB).

[3] = target: T2, recombinant NS3 serine protease (Hepatitis C virus (isolate BK), UniProt P26663); experiment: Assay of recombinant HCV NS3 serine protease purified from E. coli on a peptide substrate (NS4A/4B junction), HPLC; type: biochemical
T2 construct: NS4A/4B peptide substrate
T2 sequence (P26663 1027-1206): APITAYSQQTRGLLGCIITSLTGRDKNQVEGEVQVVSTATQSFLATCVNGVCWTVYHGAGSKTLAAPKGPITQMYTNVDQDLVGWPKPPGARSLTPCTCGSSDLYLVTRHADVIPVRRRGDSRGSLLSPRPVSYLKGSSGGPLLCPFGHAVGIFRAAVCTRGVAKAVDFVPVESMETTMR
Experimental: The recombinant NS3 serine protease produced according to the above procedure in E. coli could be assayed for activity by cleaving a substrate that provides detectable cleavage products. The signal is preferably detectable by colorimetric or fluorometric means. Methods such as HPLC and the like are also suitable.
For example, we used, as a substrate, synthetic peptides corresponding to the NS4A/4B junction of the HCV polyprotein.
The activity assay is performed by incubating 5-1000 μM substrate and 0.05-1 μM protease in buffer containing 25 mM Tris/HCl pH 7.5, 3 mM dithiothreitol, 0.5% (w/v) CHAPS and 10% (v/v) glycerol for 1-3 hours at 22° C. The reaction is stopped by addition of trifluoracetic acid to yield a final concentration of 0.1% (w/v).
The reaction products are then separated by HPLC on a C18 reverse phase column and quantitated according to their absorbance of the far UV light.

Substance | activation of the proteolytic activity associated with NS3 (cleavage of the precursor encoded by pCite(NS4B5A)) (HCV NS3 serine protease [1]) | serine protease activity of NS3 on a substrate containing NS5A and NS5B (HCV NS3 serine protease [2]; in vitro translation, protein sequence containing NS4A present in addition to the NS3 protease domain, no activity with NS3 domain alone) | proteolytic activity of the NS3 serine protease domain on NS5AB substrate (HCV NS3 serine protease [2]; peptide added to in vitro translation mixture programmed with mRNAs from pCite(NS3) and pCite(NS5AB)) | stimulation of the proteolytic activity of the recombinant NS3 serine protease ([3]; increasing amounts of peptide, NS4A/4B junction peptide substrate, pH 7.5, 22° C., HPLC) | peptide to protease ratio at which maximal activity is reached ([3]; recombinant NS3 serine protease and synthetic peptide)
NS4A: HCV non-structural hydrophobic protein of 6 kDa acting as cofactor of the NS3 serine protease | can thus activate the proteolytic activity associated with NS3 | serine protease activity of NS3 becomes evident | – | – | –
SEQ ID NO:3: Synthetic peptide derived from the C-terminal portion of SEQ ID NO:2 (NS4A); carboxy terminal cysteine replaced with alpha-aminobutyric acid (Abu) | – | – | proteolytic cleavage of the substrate in the two products containing the proteins NS5A and NS5B | up to 20 fold | equimolar amounts
